Measurements as given in patent US20150344570A1 (published 2015).
Numbering of substitutions follows the chain as printed. Numbers in names are those of the source.

T1: FcγRIIb, extracellular domain with C-terminal His tag (human, UniProt P31994 43-217)
T1 construct: extracellular domain; also called FcgRIIb; 2b; not shown: His tag attached to the C terminus
T1 sequence (looked up): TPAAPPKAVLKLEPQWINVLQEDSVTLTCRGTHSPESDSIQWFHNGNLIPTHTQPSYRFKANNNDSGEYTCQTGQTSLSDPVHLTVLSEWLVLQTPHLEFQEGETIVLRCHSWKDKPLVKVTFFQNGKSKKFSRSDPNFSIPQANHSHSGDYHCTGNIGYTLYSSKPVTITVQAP

T2: FcγRIIa R (FcγRIIa allotype with Arg at position 131), extracellular domain with C-terminal His tag (human, UniProt P12318 34-217)
T2 chain: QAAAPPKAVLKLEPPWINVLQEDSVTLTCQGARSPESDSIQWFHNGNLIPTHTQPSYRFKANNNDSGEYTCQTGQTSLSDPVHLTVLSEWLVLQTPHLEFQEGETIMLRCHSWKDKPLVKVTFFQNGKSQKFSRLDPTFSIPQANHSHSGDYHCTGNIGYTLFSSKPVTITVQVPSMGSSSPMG

T3: FcgRIIaH (human, UniProt P12318 34-217)
T3 construct: extracellular domain; also called FcγRIIa H; FcγRIIa type H; not shown: His tag at the C terminus
T3 sequence (looked up): T2 chain with R134H

T4: FcgRIIb (human, UniProt P31994 43-217)
T4 construct: extracellular domain; also called FcγRIIb; 2b; not shown: His tag at the C terminus
T4 sequence (looked up): T1 sequence (looked up)

T5: FcgRIIaR (human, UniProt P12318 34-217)
T5 construct: extracellular domain; also called FcγRIIa R; FcγRIIa type R; not shown: His tag at the C terminus
T5 sequence (looked up): T2 chain

B1: GpH7-A5/GpH7-B3 variant L328_13S/GpL16-k0 (heterodimerized antibody He Ab, L328S in one H chain) (antibody, human IgG1, kappa)
heavy 1: not shown
heavy 2: not shown
light: DIVMTQSPLSLPVTPGEPASISCQASESLVHSNRNTYLHWYLQKPGQSPQLLIYKVSNRFSGVPDRFSGSGSGTDFTLKISRVEAEDVGVYYCSQNTHVPPTFGQGTKVEIERTVAAPSVFIFPPSDEQLKSGTASVVCLLNNFYPREAKVQWKVDNALQSGNSQESVTEQDSKDSTYSLSSTLTLSKADYEKHKVYACEVTHQGLSSPVTKSFNRGEC
notes: Anti-glypican-3 human IgG1-type antibody; the alteration is in only one of the two H chains (the GpH7-B3 chain)
B2: GpH7-A5/GpH7-B3 variant L328_20W/GpL16-k0 (heterodimerized antibody He Ab, L328W in one H chain) (antibody, human IgG1, kappa)
heavy 1: not shown
heavy 2: not shown
light: B1 light
notes: as for B1
B3: GpH7-A5/GpH7-B3 variant L328_18N/GpL16-k0 (heterodimerized antibody He Ab, L328N in one H chain) (antibody, human IgG1, kappa)
heavy 1: not shown
heavy 2: not shown
light: B1 light
notes: as for B1
B4: GpH7-A5/GpH7-B3 variant L328_15Y/GpL16-k0 (heterodimerized antibody He Ab, L328Y in one H chain) (antibody, human IgG1, kappa)
heavy 1: not shown
heavy 2: not shown
light: B1 light
notes: as for B1
B5: GpH7-A5/GpH7-B3 variant I332_11K/GpL16-k0 (heterodimerized antibody He Ab, I332K in one H chain) (antibody, human IgG1, kappa)
heavy 1: not shown
heavy 2: not shown
light: B1 light
notes: as for B1
B6: H240-Kn125/H240-Hl216/L73-k0 (antibody, human IgG1, kappa)
heavy 1: QDQLVQSGAEVKKPGASVKVSCKASGFNIKDTYIQWVRQAPGQGLEWMGRIDPLRKQTKYREKFEGRVTITADTSTNTAYMELSSLRSEDTAVYYCVRSGREFDYWGQGTLVTVSSASTKGPSVFPLAPSSKSTSGGTAALGCLVKDYFPEPVTVSWNSGALTSGVHTFPAVLQSSGLYSLSSVVTVPSSSLGTQTYICNVNHKPSNTKVDKKVEPKSCDKTHTCPPCPAPEYQWGPMVFLFPPKPKDTLMISRTPEVTCVVVDVSDEEPEVKFNWYVDGVEVHNAKTKPREEQYNATYRVVSVLTVLHQDWLNGKEYKCKVSNKALPAPIEKTISKAKGQPREPQVCTLPPSRDELTKNQVSLWCLVKGFYPSDIAVEWESNGQPENNYKTTPPVLDSDGSFFLYSKLTVDKSRWQQGNVFSCSVMHEALHNHYTQKSLSLSP
heavy 2: QDQLVQSGAEVKKPGASVKVSCKASGFNIKDTYIQWVRQAPGQGLEWMGRIDPLRKQTKYREKFEGRVTITADTSTNTAYMELSSLRSEDTAVYYCVRSGREFDYWGQGTLVTVSSASTKGPSVFPLAPSSKSTSGGTAALGCLVKDYFPEPVTVSWNSGALTSGVHTFPAVLQSSGLYSLSSVVTVPSSSLGTQTYICNVNHKPSNTKVDKKVEPKSCDKTHTCPPCPAPELLGGPSVFLFPPKPKDTLMISRTPEVTCVVVDVSHEEPEVKFNWYVDGVEVHNAKTKPREEQYNSTYRVVSVLTVLHQDWLNGKEYKCKVSNDALPIPIEETISKAKGQPREPQVYTLPPSRCELTKNQVSLSCAVKGFYPSDIAVEWESNGQPENNYKTTPPVLDSDGSFFLVSKLTVDKSRWQQGNVFSCSVMHEALHNHYTQKSLSLSP
light: DIQMTQSPSSLSASVGDRVTITCRASQDIHKYIAWYQQKPGQAPRLLIQYTSTLQPGVPSRFSGSGSGTDYTFTISSLQPEDIATYYCLQYEQLRTFGGGTKVEIKRTVAAPSVFIFPPSDEQLKSGTASVVCLLNNFYPREAKVQWKVDNALQSGNSQESVTEQDSKDSTYSLSSTLTLSKADYEKHKVYACEVTHQGLSSPVTKSFNRGEC
B7: H240-Kn125/H240-Hl217/L73-k0 (antibody, human IgG1, kappa)
heavy 1: B6 heavy 1
heavy 2: B6 heavy 2 with I329Y
light: B6 light
B8: H240-Kn125/H240-Hl218/L73-k0 (antibody, human IgG1, kappa)
heavy 1: B6 heavy 1
heavy 2: B6 heavy 2 with I329H
light: B6 light

Target: T1, FcγRIIb, extracellular domain with …
Test: SPR (Biacore T100), antibody captured on antigen peptide chip, FcγR as analyte; binding amount relative to control heterodimerized antibody
Protocol: (§1) The heterodimerized antibodies He Abs in which one of the H chains was introduced with an alteration were assayed for their binding activities to each activating FcγR and inhibitory FcγR according to the method described in Example 4. […] The activating FcγRs in FIGS. 26, 27, 28, and 29 are FcγRIa, FcγRIIa (R), FcγRIIa (H), and FcγRIIIa, respectively.
(§2) Analysis of interaction between objective antibody and the FcγR was carried out using Biacore T100 (GE Healthcare). HBS-EP+ (GE Healthcare) was used as the running buffer, and the measurement temperature was set to 25° C. Chips produced by immobilizing the antigen peptide by the amine coupling method to a Series S Sencor Chip CM5 (GE Healthcare), or alternatively, chips produced by allowing preliminarily biotinylated antigen peptides to interact with and immobilize onto a Series S Sensor Chip SA (certified) (GE Healthcare) were used. Antibodies of interest were captured onto an antigen peptide-immobilized chip, and allowed to interact to each FcγR diluted with running buffer. To regenerate and repeatedly use the chip, the antibodies captured on the chip were washed off by reacting 10 mM glycine-HCl, pH 1.5.

Row | He/Con_2b (IIb binding) | Binder
1 | 149 relative binding activity, GpH7-A5/GpH7-B3/GpL16-k0 = 100 | B1
2 | 235 relative binding activity, GpH7-A5/GpH7-B3/GpL16-k0 = 100 | B2
3 | 80.8 relative binding activity, GpH7-A5/GpH7-B3/GpL16-k0 = 100 | B3
4 | 193 relative binding activity, GpH7-A5/GpH7-B3/GpL16-k0 = 100 | B4
5 | 70.9 relative binding activity, GpH7-A5/GpH7-B3/GpL16-k0 = 100 | B5

Target: T2, FcγRIIa R (FcγRIIa allotype with Arg at …)
Test: as above
Protocol: as §1, §2

Row | He/Con_2aR (IIaR binding) | Binder
6 | 117 relative binding activity, GpH7-A5/GpH7-B3/GpL16-k0 = 100 | B1
7 | 155 relative binding activity, GpH7-A5/GpH7-B3/GpL16-k0 = 100 | B2
8 | 59.4 relative binding activity, GpH7-A5/GpH7-B3/GpL16-k0 = 100 | B3
9 | 136 relative binding activity, GpH7-A5/GpH7-B3/GpL16-k0 = 100 | B4
10 | 43.1 relative binding activity, GpH7-A5/GpH7-B3/GpL16-k0 = 100 | B5

Target: T2, FcγRIIa R (FcγRIIa allotype with Arg at …)
Test: SPR (Biacore T100); ratio of He/Con for FcγRIIa R to He/Con for FcγRIIb of the same antibody

Row | He_2aR/2b (IIaR/IIb) | Binder
11 | 0.78 | B1
12 | 0.66 | B2
13 | 0.73 | B3
14 | 0.7 | B4
15 | 0.61 | B5

Target: T3, FcgRIIaH
Test: SPR (Biacore), antibody captured, FcgR extracellular domain as analyte
Protocol: (§3) Next, the amino acid at position 330 was examined. The A330M alteration has been introduced into H240-Hl076 of H240-Kn125/H240-Hl076/L73-k0. […] L73-k0 was used as the common antibody L chain. Binding of the produced variants to FcgRIa, FcgRIIaR, FcgRIIaH, FcgRIIb, FcgRIIIaF, and FcgRIIIaV was measured according to the method of Reference Example 8.
(§4) Analysis of interaction between objective antibody and the FcγR was carried out using Biacore T100 (GE Healthcare), Biacore T200, Biacore A100, and Biacore 4000. HBS-EP+ (GE Healthcare) was used as the running buffer, and the measurement temperature was set to 25° C. Chips produced by immobilizing the antigen peptide by the amine coupling method to a Series S sensor Chip CM5 (GE Healthcare), chips produced by allowing preliminarily biotinylated antigen peptides to interact with and immobilize onto a Series S Sensor Chip SA (certified) (GE Healthcare), chips produced by immobilizing Protein L (ACTIGEN, BioVision) to Series S Sencor Chip CM5 (GE Healthcare), or chips produced by immobilizing Protein A/G (Thermo Scientific) to Series S Sencor Chip CM5 (GE Healthcare) were used. Antibodies of interest were captured onto these chips, and allowed to interact to each FcγR diluted with running buffer. To regenerate and repeatedly use the chip, the antibodies captured onto the chip were washed off by reacting 10 mM glycine-HCl, pH 1.5.

Row | Kd | Binder
16 | 210 nM | B6
17 | 130 nM | B7
18 | 110 nM | B8

Target: T6, FcgRIa (human, UniProt P12314 16-292)
T6 construct: extracellular domain; also called FcγRIa; FcγRI; not shown: His tag at the C terminus
T6 sequence (P12314 16-292): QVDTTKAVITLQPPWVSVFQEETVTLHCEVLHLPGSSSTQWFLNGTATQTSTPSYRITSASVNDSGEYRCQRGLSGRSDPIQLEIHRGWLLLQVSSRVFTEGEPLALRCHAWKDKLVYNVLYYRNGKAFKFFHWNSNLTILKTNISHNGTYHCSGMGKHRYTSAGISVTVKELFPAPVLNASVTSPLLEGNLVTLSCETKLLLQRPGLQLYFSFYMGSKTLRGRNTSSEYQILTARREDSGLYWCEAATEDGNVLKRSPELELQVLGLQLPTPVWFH
Test: as above
Protocol: as §3, §4

Row | Kd | Binder
19 | 0.073 nM | B6
20 | 0.076 nM | B7
21 | 0.092 nM | B8

Target: T7, FcgRIIIaF (human, UniProt P08637 17-208)
T7 construct: extracellular domain; Polymorphic site after J. Clin. Invest; also called FcγRIIIa F; 3aF; not shown: His tag at the C terminus
T7 sequence (P08637 17-208): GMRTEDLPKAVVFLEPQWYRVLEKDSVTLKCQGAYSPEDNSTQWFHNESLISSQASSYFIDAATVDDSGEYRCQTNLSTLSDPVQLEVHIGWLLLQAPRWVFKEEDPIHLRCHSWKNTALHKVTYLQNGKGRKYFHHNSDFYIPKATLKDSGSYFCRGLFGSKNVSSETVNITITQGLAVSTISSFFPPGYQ
Test: as above
Protocol: as §3, §4

Row | Kd | Binder
22 | 2.7 nM | B6
23 | 2.4 nM | B7
24 | 2.6 nM | B8

Target: T4, FcgRIIb
Test: as above
Protocol: as §3, §4

Row | Kd | Binder
25 | 8300 nM | B6
26 | 3500 nM | B7
27 | 2900 nM | B8

Target: T8, FcgRIIIaV (human, UniProt P08637 17-208)
T8 construct: extracellular domain; Polymorphic site after J. Clin. Invest; also called FcγRIIIa V; 3aV; not shown: His tag at the C terminus
T8 sequence (P08637 17-208 F176V limits assumed): as the sequence (P08637 17-208) above, with F160V counted along it
Test: as above
Protocol: as §3, §4

Row | Kd | Binder
28 | 0.6 nM | B6
29 | 0.33 nM | B7
30 | 0.68 nM | B8

Target: T5, FcgRIIaR
Test: as above
Protocol: as §3, §4

Row | Kd | Binder
31 | 770 nM | B6
32 | 440 nM | B7
33 | 310 nM | B8

Target: T3, FcgRIIaH
Test: SPR (Biacore); KD of H240-Kn033/H240-Hl033/L73-k0 divided by KD of the variant
Protocol: as §3, §4

Row | fold 2aH | Binder
34 | 2.5 fold | B6
35 | 4 fold | B7
36 | 4.7 fold | B8

Target: T7, FcgRIIIaF
Test: as above
Protocol: as §3, §4

Row | fold 3aF | Binder
37 | 107 fold | B6
38 | 121 fold | B7
39 | 112 fold | B8

Target: T4, FcgRIIb
Test: as above
Protocol: as §3, §4

Row | fold 2b | Binder
40 | 0.4 fold | B6
41 | 0.9 fold | B7
42 | 1.1 fold | B8

Target: T8, FcgRIIIaV
Test: as above
Protocol: as §3, §4

Row | fold 3aV | Binder
43 | 80 fold | B6
44 | 146 fold | B7
45 | 70.6 fold | B8

Target: T5, FcgRIIaR
Test: as above
Protocol: as §3, §4

Row | fold 2aR | Binder
46 | 1 fold | B6
47 | 1.7 fold | B7
48 | 2.4 fold | B8
